In US20110086770A1 (ANAPHORE, published 2011):
Where a chain is given by its changes, count along the chain named.

T1: recombinant human IL-23R/Fc chimera (R&D Systems) (human, UniProt Q5VWK5 24-353)
T1 construct: bought; also called human IL-23R/Fc fusion protein; rhIL23RFc
T1 sequence (looked up): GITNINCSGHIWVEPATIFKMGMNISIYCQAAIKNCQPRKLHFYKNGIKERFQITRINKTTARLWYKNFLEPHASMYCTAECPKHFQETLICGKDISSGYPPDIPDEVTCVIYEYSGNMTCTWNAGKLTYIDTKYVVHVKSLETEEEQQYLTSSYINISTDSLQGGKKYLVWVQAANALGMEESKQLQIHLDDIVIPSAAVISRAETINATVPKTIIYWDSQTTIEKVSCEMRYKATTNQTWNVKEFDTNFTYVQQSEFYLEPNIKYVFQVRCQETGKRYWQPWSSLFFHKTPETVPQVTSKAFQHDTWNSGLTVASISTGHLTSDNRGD

B1: 101-51-1A3 ATRIMER (designed binder)
chain: EPPTQKPKKIVNAKKDVVNTKMFEELKSRLDTLAQEVALLKEQQALQTVCLKGTKVHMKCFLAFTQTKTFHEASEDCISRGGTLSTPQTGSENDALYEYLRQSVGNEAEIWLGLNGSALTNTWVDMTGARIAYKNWEHQPVYQPGGGWGVFGENCAVLSGAANGKWFDKRCRDQLPYICQFGIV
modifications: ATRIMER is a homotrimer; one protomer is given.
notes: not shown: C-terminal purification tag: Myc/His6 (pANA4) or HA-StrepII (pANA10)
B2: 105-08-2C10 ATRIMER (designed binder)
chain: B1 chain with A118L, N121D, H138T, Q139E, P140I, V141T, Y142A, G145D, W148F
notes: as for B1
B3: 105-08-2F6 ATRIMER (designed binder)
chain: B1 chain with L119Y, H138T, Q139E, P140I, V141T, Y142A, G145D, W148F, V150Y
notes: not shown: C-terminal tag: His/Myc (pANA4) or HA-StrepII (pANA10)
B4: 105-08-1B1 ATRIMER (designed binder)
chain: EPPTQKPKKIVNAKKDVVNTKMFEELKSRLDTLAQEVALLKEQQALQTVCLKGTKVHMKCFLAFTQTKTFHEASEDCISRGGTLSTPQTGSENDALYEYLRQSVGNEAEIWLGLNGSPRTQTWVDMTGARIAYKNWETEITAQPDGGFGYFGENCAVLSGAANGKWFDKRCRDQLPYICQFGIV
modifications: Homotrimer of the given chain (ATRIMER complex).
B5: 105-08-1C4 ATRIMER (designed binder)
chain: B4 chain with P118T, R119L, Q121D, F148W
modifications: Homotrimer of the given chain (ATRIMER complex).
B6: 101-80-5E8 ATRIMER (designed binder)
chain: B1 chain with H138P, Q139P, P140E, V141P, Y142L, Q143H, G145M, W148F
B7: 105-08-2G4 ATRIMER (designed binder)
chain: B4 chain with Q121G
notes: as for B3
B8: 105-08-1G2 ATRIMER (designed binder)
chain: B4 chain with P118S, R119K, Q121N, F148W
notes: as for B3
B9: 105-08-1C3 ATRIMER (designed binder)
chain: B4 chain with P118Q, R119L, Q121D, F148W
B10: 105-08-2G1 ATRIMER (designed binder)
chain: B4 chain with R119K, Q121H
B11: 105-08-1C6 ATRIMER (designed binder)
chain: B4 chain with P118A, R119L, Q121D
B12: 105-08-2E12 ATRIMER (designed binder)
chain: B4 chain with P118G, R119L, Q121D, F148W
B13: 105-08-1D1 ATRIMER (designed binder)
chain: B4 chain with P118A, R119L, Q121D, F148W
B14: 105-08-1B10 ATRIMER (designed binder)
chain: B4 chain with P118R, R119H, Q121D
B15: 105-08-2G2 ATRIMER (designed binder)
chain: B4 chain with P118A, R119I, Q121D, F148W
B16: 105-08-2C11 ATRIMER (designed binder)
chain: B4 chain with P118L, R119K, F148W
B17: 105-08-2H2 ATRIMER (designed binder)
chain: B4 chain with R119T, Q121D, F148W
B18: 105-08-2G10 ATRIMER (designed binder)
chain: B4 chain with R119L, Q121D
B19: 105-08-1D10 ATRIMER (designed binder)
chain: B4 chain with P118A, Q121G, F148W
notes: as for B3
B20: 105-08-2C4 ATRIMER (designed binder)
chain: B4 chain with P118L, R119L, Q121N
modifications: Homotrimer of the given chain (ATRIMER complex).
B21: 105-08-1A10 ATRIMER (designed binder)
chain: B4 chain with P118S, R119I, Q121D, F148W
modifications: Forms a homotrimer (ATRIMER) through the tetranectin coiled coil; one protomer is given.
notes: not shown: C-terminal tag
B22: 101-51-1A8 ATRIMER (designed binder)
chain: B1 chain with H138R, Q139T, V141P, Y142W, G145E, W148F, V150Y
modifications: ATRIMER is a homotrimer; one protomer is given.
notes: as for B1
B23: 101-51-1A6 ATRIMER (designed binder)
chain: B1 chain with H138N, Q139N, P140L, V141S, Y142A, G145R, W148F, V150Y
modifications: ATRIMER is a homotrimer; one protomer is given.
notes: as for B1
B24: 105-08-1C9 ATRIMER (designed binder)
chain: B4 chain with P118T, R119L, Q121D
notes: as for B3
B25: 105-08-1D2 ATRIMER (designed binder)
chain: B4 chain with R119V, Q121D
modifications: Forms a homotrimer (ATRIMER) through the tetranectin coiled coil; one protomer is given.
notes: not shown: C-terminal tag
B26: 105-08-1C2 ATRIMER (designed binder)
chain: B4 chain with P118R, R119A, Q121D
modifications: Forms a homotrimer (ATRIMER) through the tetranectin coiled coil; one protomer is given.
notes: not shown: C-terminal tag
B27: 105-08-2C8 ATRIMER (designed binder)
chain: B4 chain with P118W, R119L, Q121D, F148W
B28: 105-08-2C12 ATRIMER (designed binder)
chain: B4 chain with P118Q, Q121D
modifications: Homotrimer of the given chain (ATRIMER complex).
B29: 105-08-2C1 ATRIMER (designed binder)
chain: B4 chain with P118S, R119L, Q121D, F148W
B30: 105-08-2C6 ATRIMER (designed binder)
chain: B4 chain with P118Q, Q121D, F148W
B31: 101-51-1A10 ATRIMER (designed binder)
chain: B1 chain with Q139P, P140L, V141P, Y142P, G145S, W148F, V150Y
modifications: ATRIMER is a homotrimer; one protomer is given.
notes: as for B1
B32: 105-08-1D3 ATRIMER (designed binder)
chain: B4 chain with P118K, R119V, Q121E
notes: as for B1
B33: 105-08-2G6 ATRIMER (designed binder)
chain: B4 chain with P118L, R119L, Q121D, F148W
notes: as for B3
B34: 105-08-1C11 ATRIMER (designed binder)
chain: B4 chain with P118S, Q121D
notes: as for B3
B35: 101-54-4A12 ATRIMER (designed binder)
chain: EPPTQKPKKIVNAKKDVVNTKMFEELKSRLDTLAQEVALLKEQQALQTVCLKGTKVHMKCFLAFTQTKTFHEASEDCISRGGTLSTPQTGSENDALYEYLRQSVGNEAEIWLGLNGSRRSGVWVDMTGARIAYKNWEPPGPAHPQGGFGVFGENCAVLSGAANGKWFDKRCRDQLPYICQFGIV
B36: 105-08-2A1 ATRIMER (designed binder)
chain: B4 chain with P118M, Q121D, F148W
B37: 105-08-1B7 ATRIMER (designed binder)
chain: B4 chain with Q121D
modifications: Forms a homotrimer (ATRIMER) through the tetranectin coiled coil; one protomer is given.
notes: not shown: C-terminal tag
B38: 105-08-2G7 ATRIMER (designed binder)
chain: B4 chain with R119K, Q121G
notes: as for B3
B39: 105-08-2D2 ATRIMER (designed binder)
chain: B4 chain with P118A, Q121G
modifications: Forms a homotrimer (ATRIMER) through the tetranectin coiled coil; one protomer is given.
notes: not shown: C-terminal tag
B40: 105-08-1G12 ATRIMER (designed binder)
chain: B4 chain with P118L, Q121G, F148W
B41: 105-08-1D12 ATRIMER (designed binder)
chain: B4 chain with P118V, R119L, Q121D
B42: 105-08-1A8 ATRIMER (designed binder)
chain: B4 chain with Q121N, Y150V
notes: not shown: C-terminal tag: Myc/His6 (pANA4) or HA-StrepII (pANA10); A Ser left at the ompA junction may also sit at the N-terminus
B43: 105-08-1C10 ATRIMER (designed binder)
chain: B4 chain with P118S, R119V, Q121N, F148W
B44: 101-54-4B6 ATRIMER (designed binder)
chain: B35 chain with R118A, R119L, S120T, G121N, V122T, A142H, Q145M
B45: 105-08-1A7 ATRIMER (designed binder)
chain: B4 chain with P118V, Q121N
modifications: Homotrimer of the given chain (ATRIMER complex).
B46: 105-08-2B3 ATRIMER (designed binder)
chain: B4 chain with P118A, R119I, Q121N, F148W
B47: 105-08-1A4 ATRIMER (designed binder)
chain: B4 chain with P118A, R119V, Q121N
B48: 105-08-2C9 ATRIMER (designed binder)
chain: B4 chain with P118T, R119L, Q121N, F148W
notes: as for B3
B49: 101-54-4B3 ATRIMER (designed binder)
chain: B1 chain with H138L, Q139P, V141P, Y142G, Q143H, G145Q, W148F
B50: 105-08-1G9 ATRIMER (designed binder)
chain: B4 chain with R119K, Q121D
notes: as for B3

target: T1, recombinant human IL-23R/Fc chimera …; assay: competition ELISA against IL-23
Procedure: Assays were performed generally as follows. Individual wells in Immulon HB2 plates were incubated overnight at 4° C. with 100 μL PBS containing 100 ng of an anti-human IgG Fc (R&D MAB 110 clone 97924). Plates were washed five times with PBS/0.05% Tween 20, and wells were incubated for 1.5 h at RT with 100 μL each of PBS containing 50 ng of recombinant human IL-23R/Fc. […] Competitor was included at a final concentration of 1 μg/mL. After incubation, plates were washed as described and wells were incubated for 40 min at RT with 100 μL each of PBS containing a 1:5000 dilution of streptavidin-HRP conjugate (Pierce catalog no. 21130). After washing, wells were incubated with 100 μL each of TMB (BioFX Lab catalog no. TMBH-1000-0) for up to 30 min at RT. Reactions were stopped with an equal volume of 0.2 M sulfuric acid.

Binder | Ratio IC50 to 056-53.H4E IC50
B1 | 1.6 ratio
B2 | 0.9 ratio
B3 | 2.4 ratio
B4 | 3.3 ratio
B5 | 3.3 ratio
B6 | 0.6 ratio
B7 | 2.5 ratio
B8 | 5.5 ratio
B9 | 3.6 ratio
B10 | 2.2 ratio
B11 | 2 ratio
B12 | 9.1 ratio
B13 | 3.6 ratio
B14 | 4.7 ratio
B15 | 3.8 ratio
B16 | 9.1 ratio
B17 | 4 ratio
B18 | 1.8 ratio
B19 | 5.5 ratio
B20 | 2.9 ratio
B21 | 4.3 ratio
B22 | 3.7 ratio
B23 | 2.6 ratio
B24 | 7.4 ratio
B25 | 4.3 ratio

Binder | Ratio IC50 to 056-53.H4E IC50
B26 | 4.1 ratio
B27 | 8.4 ratio
B28 | 3.3 ratio
B29 | 3.6 ratio
B30 | 3.6 ratio
B31 | 8.7 ratio
B32 | 0.4 ratio
B33 | 5.2 ratio
B34 | 2.8 ratio
B35 | 1.1 ratio
B36 | 5 ratio
B37 | 4.1 ratio
B38 | 2.5 ratio
B39 | 4.1 ratio
B40 | 13.2 ratio
B41 | 4.6 ratio
B42 | 1.6 ratio
B43 | 5 ratio
B44 | 0.3 ratio
B45 | 2.9 ratio
B46 | 3.4 ratio
B47 | 1.6 ratio
B48 | 5.3 ratio
B49 | 1 ratio
B50 | 2.4 ratio
